Test results taken from paper PMC2490753.

Target: YacG (E. coli) (UniProt P0A8H8)
Test: SPR

UniProt P0A8H8, sequence (P0A8H8 whole entry): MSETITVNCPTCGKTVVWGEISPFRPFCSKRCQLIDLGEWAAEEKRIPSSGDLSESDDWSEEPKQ

For “GyrB subunit of E. coli DNA gyrase (from UniProt P0AES6 1-804) (natural protein)”, the response above nonspecific control at 1 uM GyrB was 92 RU.
